# From patent publication US20250388702A1 (Dana-Farber, published 2025)
# T1: Human HHLA2-mIgG2a fusion protein (human; mouse, UniProt Q9UM44 23-344, limits assumed)
# T1 construct: also called HHLA2-Ig; HHLA2-mouse IgG2a; not shown: mutated at IgG2a L235E, E318A, K320A, K322A
# T1 sequence: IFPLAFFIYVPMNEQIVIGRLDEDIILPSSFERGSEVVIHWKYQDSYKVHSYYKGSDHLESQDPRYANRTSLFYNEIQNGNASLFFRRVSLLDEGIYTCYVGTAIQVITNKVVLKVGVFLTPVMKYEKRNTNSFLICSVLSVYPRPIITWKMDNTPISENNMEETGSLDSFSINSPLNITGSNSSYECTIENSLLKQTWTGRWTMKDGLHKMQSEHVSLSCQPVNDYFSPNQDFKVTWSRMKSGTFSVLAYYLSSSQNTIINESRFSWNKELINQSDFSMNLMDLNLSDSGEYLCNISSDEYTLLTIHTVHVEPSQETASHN
# B1: KIR2DS3 (receptor, UniProt Q14952 22-304, looked up)
# chain: HEGFRRKPSLLAHPGRLVKSEETVILQCWSDVMFEHFLLHREGTFNDTLRLIGEHIDGVSKANFSIGRMRQDLAGTYRCYGSVPHSPYQFSAPSDPLDIVITGLYEKPSLSAQPGPTVLAGESVTLSCSSWSSYDMYHLSTEGEAHERRFSAGPKVNGTFQADFPLGPATQGGTYRCFGSFHDSPYEWSKSSDPLLVSVTGNPSNSWPSPTEPSSKTGNPRHLHVLIGTSVVKLPFTILLFFLLHRWCSDKKNASVMDQGPAGNRTVNREDSDEQDHQEVSYA
# notes: whole, on cells
# B2: KIR2DS5 (receptor, UniProt Q14953 22-304, looked up)
# chain: HEGFRRKPSLLAHPGPLVKSEETVILQCWSDVMFEHFLLHREGTFNHTLRLIGEHIDGVSKGNFSIGRMTQDLAGTYRCYGSVTHSPYQLSAPSDPLDIVITGLYEKPSLSAQPGPTVLAGESVTLSCSSRSSYDMYHLSREGEAHERRLPAGPKVNRTFQADFPLDPATHGGTYRCFGSFRDSPYEWSKSSDPLLVSVTGNSSNSWPSPTEPSSETGNPRHLHVLIGTSVVKLPFTILLFFLLHRWCSNKKNASVMDQGPAGNRTVNREDSDEQDHQEVSYA
# notes: whole, on cells
# B3: KIR2DS1 (receptor, UniProt Q14954 22-304, looked up)
# chain: HEGVHRKPSLLAHPGRLVKSEETVILQCWSDVMFEHFLLHREGMFNDTLRLIGEHHDGVSKANFSISRMKQDLAGTYRCYGSVTHSPYQLSAPSDPLDIVIIGLYEKPSLSAQPGPTVLAGENVTLSCSSRSSYDMYHLSREGEAHERRLPAGTKVNGTFQANFPLGPATHGGTYRCFGSFRDSPYEWSKSSDPLLVSVTGNPSNSWPSPTEPSSETGNPRHLHVLIGTSVVKIPFTILLFFLLHRWCSDKKNAAVMDQEPAGNRTVNSEDSDEQDHQEVSYA
# notes: whole, on cells
# B4: KIR2DL3 (receptor, UniProt P43628 22-341, looked up)
# chain: HEGVHRKPSLLAHPGPLVKSEETVILQCWSDVRFQHFLLHREGKFKDTLHLIGEHHDGVSKANFSIGPMMQDLAGTYRCYGSVTHSPYQLSAPSDPLDIVITGLYEKPSLSAQPGPTVLAGESVTLSCSSRSSYDMYHLSREGEAHERRFSAGPKVNGTFQADFPLGPATHGGTYRCFGSFRDSPYEWSNSSDPLLVSVTGNPSNSWPSPTEPSSETGNPRHLHVLIGTSVVIILFILLLFFLLHRWCCNKKNAVVMDQEPAGNRTVNREDSDEQDPQEVTYAQLNHCVFTQRKITRPSQRPKTPPTDIIVYTELPNAEP
# notes: whole, on cells
# B5: KIR2DS2 (receptor, UniProt P43631 22-304, looked up)
# chain: HEGVHRKPSLLAHPGPLVKSEETVILQCWSDVRFEHFLLHREGKYKDTLHLIGEHHDGVSKANFSIGPMMQDLAGTYRCYGSVTHSPYQLSAPSDPLDIVITGLYEKPSLSAQPGPTVLAGESVTLSCSSRSSYDMYHLSREGEAHERRFSAGPKVNGTFQADFPLGPATHGGTYRCFGSFRDSPYEWSNSSDPLLVSVTGNPSNSWPSPTEPSSKTGNPRHLHVLIGTSVVKIPFTILLFFLLHRWCSNKKNAAVMDQEPAGNRTVNSEDSDEQDHQEVSYA
# notes: whole, on cells
# Assays:
# [1] = target: T1, Human HHLA2-mIgG2a fusion protein; assay: cell microarray on transfected HEK293 cells, HHLA2-mIgG2a probe, AF647 anti-mouse IgG detection
# Method: A library of ˜5500 full length cDNA clones covering more than 3,500 different plasma membrane proteins was arrayed in duplicate across 13 microarray slides (“slide sets”). Human HEK293 cells were grown above the cDNA clones and reverse-transfected. An expression vector (pIRES-hEGFR-IRES-ZsGreen1) was spotted in quadruplicate on every slide and was used to ensure that a minimal threshold of transfection efficiency had been achieved or exceeded on every slide.
# Two replicate slides were screened for each of the 13 slide sets. Fluorescent images were analyzed and quantitated (for transfection efficiency) using ImageQuant software (GE). A protein ‘hit’ was defined as duplicate spots showing a raised signal compared to background levels. This was achieved by visual inspection using the images gridded on the ImageQuant software.
# [2] = target: T2, Human KIR3DL3, Sino Biological Cat#: 16055-H08H (human, UniProt Q8N743 26-322); assay: BLI (Octet RED96), antibody captured on the sensor, antigen in solution, 1:1 model
# T2 construct: Bought soluble antigen; also called KIR3DL3 (Octet antigen)
# Method: (§1) Binding experiments were performed on Octat Red af 25″° C. The human antibodies were loaded onto Anti-higG Fe Capture biosensors and the mouse antibodies were loaded onto Anti-migG Fe Capture biosensors both for 300 seconds. The ligand loaded sensors were dipped into a 3-fold series dilution (starting at 300 nad) of the antigens (PD-1 and KIR3DL3) for 240 seconds followed by dissociation for 400 seconds. Kinetic constanta were calculated using a monovalent (1:1) binding model Antigen: Haman PD1, Sino Biological Cat #: HPLC-10377-HOSH.
# [3] = target: T3, Human PD1, Sino Biological Cat #: HPLC-10377-H08H (human, UniProt Q15116 25-167); assay: as above
# T3 construct: Bought; also called PD-1 (Octet antigen)
# Method: as §1
# KIR3DL2 = target: T4, KIR3DL2 (UniProt P43630 22-455, limits assumed); assay: HEK293 cell microarray
# T4 construct: whole, on cells
# Method: (§2) Replicate microarray slides expressing a complete KIR family cDNA panel were fixed and blocked with buffer containing PBS/0.5% BSA and incubated for 1 hour at room temperature with individual KIR3DL3 mAb hybridoma supernatants at 1:5, 1:25 and 1:250 dilutions in PBS/0.1% BSA. Cell arrays were washed with PBS and incubated for 1 hour at room temperature in PBS/0.1% BSA containing AF647-conjugated goat anti-mouse IgG (H+L) (Life Technologies, A21235). Slides were washed with PBS, dried, and imaged for ZsGreen1 and AF647 fluorescence.
# (§3) In Table 4, replicate microarray slides expressing the KIR family cDNA panel (as in FIG. 1A, FIG. 2B, and FIG. 2C) were fixed and blocked with buffer containing PBS/0.5% BSA and incubated for 1 hour at room temperature with individual KIR3DL3 mAb hybridoma supernatants at 1:5, 1:25 and 1:250 dilutions in PBS/0.1% BSA. Cell arrays were washed with PBS and incubated for 1 hour at room temperature in PBS/0.1% BSA containing AF647-conjugated goat anti-mouse IgG (H+L) (Life Technologies, A21235). Slides were washed with PBS, dried, and imaged for ZsGreen1 and AF647 fluorescence.
# KIR2DS5 = target: B2; assay: HEK293 cell microarray
# Method: as §2, §3
# KIR2DL2 = target: T5, KIR2DL2 (UniProt P43627 22-348, limits assumed); assay: HEK293 cell microarray
# T5 construct: whole, on cells
# Method: as §2, §3
# KIR2DL4 = target: T6, KIR2DL4 (UniProt Q99706 22-377, limits assumed); assay: HEK293 cell microarray
# T6 construct: whole, on cells
# Method: as §2, §3
# KIR3DL1 = target: T7, KIR3DL1 (UniProt P43629 22-444, limits assumed); assay: HEK293 cell microarray
# T7 construct: whole, on cells
# Method: as §2, §3
# KIR2DL1 = target: T8, KIR2DL1 (UniProt P43626 22-348, limits assumed); assay: HEK293 cell microarray
# T8 construct: whole, on cells
# Method: as §2, §3
# KIR2DS3 = target: B1; assay: HEK293 cell microarray
# Method: as §2, §3
# KIR2DS1 = target: B3; assay: HEK293 cell microarray
# Method: as §2, §3
# KIR2DL3 = target: B4; assay: HEK293 cell microarray
# Method: as §2, §3
# KIR2DS2 = target: B5; assay: HEK293 cell microarray
# Method: as §2, §3
# KIR3DS1 = target: T9, KIR3DS1 (UniProt Q14943 22-382, limits assumed); assay: HEK293 cell microarray
# T9 construct: whole, on cells
# Method: as §2, §3
# T3 sequence (Q15116 25-167 limits assumed): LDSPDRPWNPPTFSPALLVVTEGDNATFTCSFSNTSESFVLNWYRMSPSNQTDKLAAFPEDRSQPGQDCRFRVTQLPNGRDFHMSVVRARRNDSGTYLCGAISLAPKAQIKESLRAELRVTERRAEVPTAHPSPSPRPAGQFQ
# T2 sequence (Q8N743 other isoform, or with tags, fused parts or gaps H08H H08H limits assumed): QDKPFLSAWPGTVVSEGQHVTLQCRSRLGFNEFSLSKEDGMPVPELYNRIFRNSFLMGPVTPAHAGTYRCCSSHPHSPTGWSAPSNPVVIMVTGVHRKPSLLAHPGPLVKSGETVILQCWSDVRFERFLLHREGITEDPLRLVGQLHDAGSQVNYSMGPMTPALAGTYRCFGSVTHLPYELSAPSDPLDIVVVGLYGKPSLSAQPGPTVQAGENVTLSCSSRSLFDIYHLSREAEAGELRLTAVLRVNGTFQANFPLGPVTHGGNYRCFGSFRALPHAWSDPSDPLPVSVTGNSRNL
# T4 sequence (P43630 22-455 limits assumed): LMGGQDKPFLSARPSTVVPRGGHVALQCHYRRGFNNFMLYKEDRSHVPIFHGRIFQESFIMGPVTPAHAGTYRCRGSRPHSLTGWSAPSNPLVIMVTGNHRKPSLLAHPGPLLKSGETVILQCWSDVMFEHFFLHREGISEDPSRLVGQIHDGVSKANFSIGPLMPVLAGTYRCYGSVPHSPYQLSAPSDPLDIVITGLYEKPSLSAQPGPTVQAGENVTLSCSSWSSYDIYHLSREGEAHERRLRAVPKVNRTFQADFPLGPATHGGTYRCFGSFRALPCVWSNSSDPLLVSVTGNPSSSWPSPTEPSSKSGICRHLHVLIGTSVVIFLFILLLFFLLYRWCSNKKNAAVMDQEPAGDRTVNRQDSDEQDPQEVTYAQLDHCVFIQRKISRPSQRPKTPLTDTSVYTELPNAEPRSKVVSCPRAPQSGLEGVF
# T7 sequence (P43629 22-444 limits assumed): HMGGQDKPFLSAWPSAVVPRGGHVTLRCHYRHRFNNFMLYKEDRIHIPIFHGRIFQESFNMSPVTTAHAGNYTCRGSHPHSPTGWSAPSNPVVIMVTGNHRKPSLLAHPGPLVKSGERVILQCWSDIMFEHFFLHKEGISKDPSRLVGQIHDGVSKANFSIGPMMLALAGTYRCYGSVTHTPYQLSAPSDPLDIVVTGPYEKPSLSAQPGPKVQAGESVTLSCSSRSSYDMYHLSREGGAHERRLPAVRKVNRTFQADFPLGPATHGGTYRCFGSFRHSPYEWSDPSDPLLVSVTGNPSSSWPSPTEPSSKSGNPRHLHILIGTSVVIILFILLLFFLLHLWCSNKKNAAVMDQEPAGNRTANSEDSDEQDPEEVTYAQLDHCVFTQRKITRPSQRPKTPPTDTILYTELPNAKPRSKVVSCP
# T9 sequence (Q14943 22-382 limits assumed): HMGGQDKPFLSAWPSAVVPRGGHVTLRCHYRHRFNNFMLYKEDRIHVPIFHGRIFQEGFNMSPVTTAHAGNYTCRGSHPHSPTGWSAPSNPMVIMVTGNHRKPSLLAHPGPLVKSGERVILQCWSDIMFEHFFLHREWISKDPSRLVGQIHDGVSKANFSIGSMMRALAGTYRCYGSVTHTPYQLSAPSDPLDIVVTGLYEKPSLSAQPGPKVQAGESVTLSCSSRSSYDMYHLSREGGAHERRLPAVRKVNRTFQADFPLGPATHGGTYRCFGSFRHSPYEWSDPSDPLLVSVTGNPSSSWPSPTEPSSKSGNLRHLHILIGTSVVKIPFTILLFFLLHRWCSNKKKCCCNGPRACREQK
# T8 sequence (P43626 22-348 limits assumed): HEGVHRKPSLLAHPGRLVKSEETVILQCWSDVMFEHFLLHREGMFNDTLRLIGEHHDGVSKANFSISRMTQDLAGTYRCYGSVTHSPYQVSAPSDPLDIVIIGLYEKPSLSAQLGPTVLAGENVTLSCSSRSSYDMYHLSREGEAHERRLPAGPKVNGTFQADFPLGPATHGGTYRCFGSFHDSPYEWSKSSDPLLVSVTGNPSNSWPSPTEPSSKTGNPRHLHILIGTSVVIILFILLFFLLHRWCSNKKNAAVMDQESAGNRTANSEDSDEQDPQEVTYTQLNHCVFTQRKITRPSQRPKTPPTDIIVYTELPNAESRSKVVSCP
# T5 sequence (P43627 22-348 limits assumed): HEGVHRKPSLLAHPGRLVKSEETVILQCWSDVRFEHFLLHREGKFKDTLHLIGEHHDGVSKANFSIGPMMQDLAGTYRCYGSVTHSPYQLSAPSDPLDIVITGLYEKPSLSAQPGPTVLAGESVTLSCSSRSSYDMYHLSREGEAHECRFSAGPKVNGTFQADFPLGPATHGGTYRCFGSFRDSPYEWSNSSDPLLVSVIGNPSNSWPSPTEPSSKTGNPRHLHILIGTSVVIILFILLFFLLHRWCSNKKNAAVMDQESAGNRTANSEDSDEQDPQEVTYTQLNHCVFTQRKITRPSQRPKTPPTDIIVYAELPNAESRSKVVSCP
# T6 sequence (Q99706 22-377 limits assumed): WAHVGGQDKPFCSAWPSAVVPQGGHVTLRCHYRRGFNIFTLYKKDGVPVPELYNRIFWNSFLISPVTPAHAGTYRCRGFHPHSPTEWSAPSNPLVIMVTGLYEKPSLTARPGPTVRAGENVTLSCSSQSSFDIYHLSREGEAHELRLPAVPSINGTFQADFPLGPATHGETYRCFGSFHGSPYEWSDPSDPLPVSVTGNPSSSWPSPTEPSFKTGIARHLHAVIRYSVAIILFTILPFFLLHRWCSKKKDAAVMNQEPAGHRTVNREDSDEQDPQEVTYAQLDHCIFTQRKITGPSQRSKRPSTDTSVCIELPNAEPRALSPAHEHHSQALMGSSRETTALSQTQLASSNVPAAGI
binder,measurement,setting,value
B1,binding result,[1],no binding (tested: 20 ug/ml)
"KIR3DL3 mAb 574.2.2F11.2.7.4 human IgG4 (S228P) (antibody, V domains shown, Chimeric: mouse 2F11 variable domains on human IgG4 (S228P) and human kappa (Km3); Signal peptide placeholder left out; also called LP KIR3DL3 mAb (TP-31851); KIR3DL3 mAb 2F11 human IgG4) VH: DVQLVESGGGLVQPGGSRKLSCAASGFTFSYFGMHWVRRAPEKGLEWVAFISSDSTTIYYTDTVKGRFTISRDNPKNTLFLQMTSLRSEDTAIYYCARFYDGAMDYWGQGTSVTVST VL: DIVMTQSQKFMSTSVGDRVSITCKASQSVRTAVAWYQQKPGQSPKVLIYLASNRHTGVPDRFTGSGSGTDFTLTISNVQSEDLADYFCLQHWNYPLTFGAGTKLELKR",Kd,[2],0.289 nM
same,koff,[2],7.19e-05 s⁻¹
same,kon,[2],248000 M⁻¹ s⁻¹
"CD86 (ligand, human, UniProt P42081 24-329, looked up, full length, on the cell surface) single chain: APLKIQAYFNETADLPCQFANSQNQSLSELVVFWQDQENLVLNEVYLGKEKFDSVHSKYMGRTSFDSDSWTLRLHNLQIKDKGLYQCIIHHKKPTGMIRIHQMNSELSVLANFSQPEIVPISNITENVYINLTCSSIHGYPEPKKMSVLLRTKNSTIEYDGVMQKSQDNVTELYDVSISLSVSFPDVTSNMTIFCILETDKTRLLSSPFSIELEDPQPPPDHIPWITAVLPTVIICVMVFCLILWKWKKKKRPRNSYKCGTNTMEREESEQTKKREKIHIPERSDEAQRVFKSSKTSSCDKSDTCF",binding result,[1],no binding (tested: 20 ug/ml)
"PD-1 EH13.2A11.17.1 human IgG4 (S228P) (antibody, V domains shown, Chimeric: mouse EH13 variable domains on human IgG4 (S228P) and human kappa (Km3); The printed word SignalPeptide_ is a placeholder and is left out; also called LP PD-1 mAb (TP-31850); PD-1 mAb EH13 human IgG4) VH: EVKLVESGGGLVQPGGSLKLSCAASGFTFSSFTLSWVRQTPEKRLEWVAYISYGGADTYYPDTVKGRFTIFRDNAKNTLYLQMSSLKSEDTARYYCARHGPYGKGDYYAMDYWGQGTSVTVSS VL: not shown",Kd,[3],6.88 nM
same,koff,[3],0.00137 s⁻¹
same,kon,[3],199000 M⁻¹ s⁻¹
"PD-1 mAb EH13.2A11.17.1 (antibody, V domains shown, Parental mouse hybridoma antibody; also called parental control hybridoma) VH: EVKLVESGGGLVQPGGSLKLSCAASGFTFSSFTLSWVRQTPEKRLEWVAYISYGGADTYYPDTVKGRFTIFRDNAKNTLYLQMSSLKSEDTARYYCARHGPYGKGDYYAMDYWGQGTSVTVSS VL: not shown",Kd,[3],7.1 nM
same,koff,[3],0.00154 s⁻¹
same,kon,[3],216000 M⁻¹ s⁻¹
"KIR3DL3 mAb 574.2.1D12.1.6 (antibody, IgG2a, V domains shown, Mouse hybridoma antibody, IgG2a; only variable domains given; also called AVS-3705) VH: QVQLQQSGAELVRPGTSVKVSCKASGYAFNNYLIEWVKQRPGQGLEWIGVINPGSGGTNDNEKFRGKATLTADTSSSTAYMQLTSLTSDDSAVYFCARGNYYGTRDWYFDVWGAGTTVTVSS VL: QIVLTQSPAIMSASLGARVTMTCTASSSVSSSSLHWYQQKPGSSPKLWIYSISSLASGVPARFSGSGSGTSYSLTISSLEAEDAATYYCHQYHRSPPTFGGGTKLEIK",binding result,KIR3DL2,"no binding (tested: supernatant 1:5, 1:25, 1:250)"
same,binding result,KIR2DS5,"no binding (tested: supernatant 1:5, 1:25, 1:250)"
same,binding result,KIR2DL2,"no binding (tested: supernatant 1:5, 1:25, 1:250)"
same,binding result,KIR2DL4,"no binding (tested: supernatant 1:5, 1:25, 1:250)"
same,binding result,KIR3DL1,"no binding (tested: supernatant 1:5, 1:25, 1:250)"
same,binding result,KIR2DL1,"no binding (tested: supernatant 1:5, 1:25, 1:250)"
same,binding result,KIR2DS3,"no binding (tested: supernatant 1:5, 1:25, 1:250)"
same,binding result,KIR2DS1,"no binding (tested: supernatant 1:5, 1:25, 1:250)"
same,binding result,KIR2DL3,"no binding (tested: supernatant 1:5, 1:25, 1:250)"
same,binding result,KIR2DS2,"no binding (tested: supernatant 1:5, 1:25, 1:250)"
same,binding result,KIR3DS1,"no binding (tested: supernatant 1:5, 1:25, 1:250)"
B2,binding result,[1],no binding (tested: 20 ug/ml)
B3,binding result,[1],no binding (tested: 20 ug/ml)
B4,binding result,[1],no binding (tested: 20 ug/ml)
B5,binding result,[1],no binding (tested: 20 ug/ml)
